This is an account of results in patent US20140134183A1 (CELL MEDICA SWITZERLAND, published 2014).

Numbering of substitutions follows the chain as printed.

First the molecules themselves.
B1: DLX2464 (scFv)
scFv: EIVMTQSPSTLSASVGDRVIITCQASQSIDNWLSWYQQKPGKAPKLLIYRASTLASGVPSRFSGSGSGAEFTLTISSLQPDDFATYYCQNTGGGVSIAFGQGTKLTVLGGGGGSGGGGSGGGGSGGGGSEVQLVESGGGLVQPGGSLRLSCTASGFSLSSAAMAWVRQAPGKGLEWVGIIYDSASTYYASWAKGRFTISRDTSKNTVYLQMNSLRAEDTAVYYCARERQIFSGDMAGWGQGTLVTVSS
B2: DLX2466 (scFv)
scFv: B1 scFv with D30G, N31K, W32Y, T91A, A161D, Q229N
B3: DLX2467 (scFv)
scFv: B1 scFv with D30H, T53N, V95S, S160R, Q229M, M235F, A236V, G237L
B4: DLX2476 (scFv)
scFv: B1 scFv with D30S, N31S, Q229D, M235F, A236V
B5: DLX2475 (scFv)
scFv: B1 scFv with N31K, R50Q, S96H, A161Y, Q229A, M235F, A236K, G237L
B6: DLX2468 (scFv)
scFv: B1 scFv with D30G, W32Y, T91A, V95T, A161S, Q229N, A236V, G237L
B7: DLX2465 (scFv)
scFv: B1 scFv with Q229N, A236D, G237L
B8: DLX2680 (scFv)
scFv: EIVMTQSPSTLSASVGDRVIITCRASQSIGNWLSWYQQKPGKAPKLLIYRASNLASGVPSRFSGSGSGAEFTLTISSLQPEDFATYYCQNTGGGINIAFGQGTKLTVLGGGGGSGGGGSGGGGSGGGGSEVQLVESGGGNVQPGGSLRLSCTASGFSLSDAAMAWVRQAPGKGLEWVGIIYDSASTFYASWAKGRFTISRDNSKNTLYLQMNSLRAEDTATYYCARERNIFSGDMALWGQGTTVTVSS
notes: tested as cleared E. coli lysate; also called DLX2529_2530
B9: DLX2695 (scFv)
scFv: ADIVMTQSPSTLSASVGDRVTITCQASQSISSYLSWYQQKPGKAPKLLIYRASTLASGVPSRFSGSGSGAEFTLTISSLQPDDFATYYCQNTGGGINIAFGQGTKLEIKRGGGGSGGGGSGGGGSGGGGSEVQLVESGGGLVQPGGSLRLSCTVSGFSLSSYAMSWVRQAPGKGLEWVGIIYDSASTYYASWAKGRFTISKDTSKNTVYLQMNSLRAEDTAVYYCARERAIFSGDFDYWGQGTLVTVSS
notes: tested as cleared E. coli lysate; also called DLX2547_2585
B10: DLX2691 (scFv)
scFv: B9 scFv with R51K, A70T, E71D, D82E, T92A, L106V
notes: tested as cleared E. coli lysate; also called DLX2544_2585
B11: DLX2694 (scFv)
scFv: B9 scFv with V178I, V208L, Y224F, A230Q, F236M, Y238G, L244T
notes: tested as cleared E. coli lysate; also called DLX2547_2548
B12: DLX2678 (scFv)
scFv: EIVMTQSPSTLSASVGDRVTITCQASQSIGNWLAWYQQKPGKAPKLLIYQASNLASGVPSRFSGSGSGTDFTLTISSLQPDDFATYYCQNAGGATTIAFGQGTKLTVLGGGGGSGGGGSGGGGSGGGGSEVQLVESGGGLVQPGGSLRLSCTVSGFSLSSYAMSWVRQAPGKGLEWIGIIYDSASTYYASWAKGRFTISKDTSKNTLYLQMNSLRAEDTAVYFCARERQIFSGDMDGWGQGTTVTVSS
notes: tested as cleared E. coli lysate; also called DLX2528_2548
B13: DLX2687 (scFv)
scFv: EIVMTQSPSTLSASVGDRVTITCQASQSISSWLSWYQQKPGKAPKLLIYKASTLASGVPSRFSGSGSGTEFTLTISSLQPDDFATYYCQNAGGGVSIAFGQGTKLTVLGGGGGSGGGGSGGGGSGGGGSEVQLVESGGGLVQPGGSLRLSCTVSGFSLSSYAMSWVRQAPGKGLEWVGIIYDSASTYYASWAKGRFTISKDTSKNTVYLQMNSLRAEDTAVYYCARERAIFSGDFDYWGQGTLVTVSS
notes: tested as cleared E. coli lysate; also called DLX2543_2585
B14: DLX2677 (scFv)
scFv: EIVMTQSPSTLSASVGDRVTITCQASQSIGNWLAWYQQKPGKAPKLLIYQASNLASGVPSRFSGSGSGTDFTLTISSLQPDDFATYYCQNAGGATTIAFGQGTKLTVLGGGGGSGGGGSGGGGSGGGGSEVQLVESGGGNVQPGGSLRLSCTASGFSLSNSAMAWVRQAPGKGLEWVGIIYDSASTYYASWAKGRFTISRDNSKNTVYLQMNSLRAEDTATYYCARERAIFSGDFALWGQGTLVTVSS
notes: tested as cleared E. coli lysate; also called DLX2528_2531
B15: DLX2679 (scFv)
scFv: B12 scFv with I177V, L207V, F223Y, Q229A, M235F, G237Y, T243L
notes: tested as cleared E. coli lysate; also called DLX2528_2585
B16: DLX2685 (scFv)
scFv: B14 scFv with G30S, N31S, A34S, Q50K, N53T, D70E, A94G, T95V, T96S
notes: tested as cleared E. coli lysate; also called DLX2543_2531
B17: DLX2676 (scFv)
scFv: B14 scFv with N160D, S161A, Y187F, V207L, A229N, F235M, L243T
notes: tested as cleared E. coli lysate; also called DLX2528_2530
B18: DLX2690 (scFv)
scFv: ADIVMTQSPSTLSASVGDRVTITCQASQSISSYLSWYQQKPGKAPKLLIYKASTLASGVPSRFSGSGSGTDFTLTISSLQPEDFATYYCQNAGGGINIAFGQGTKVEIKRGGGGSGGGGSGGGGSGGGGSEVQLVESGGGLVQPGGSLRLSCTVSGFSLSSYAMSWVRQAPGKGLEWIGIIYDSASTYYASWAKGRFTISKDTSKNTLYLQMNSLRAEDTAVYFCARERQIFSGDMDGWGQGTTVTVSS
notes: tested as cleared E. coli lysate; also called DLX2544_2548
B19: DLX2682 (scFv)
scFv: EIVMTQSPSTLSASVGDRVIITCRASQSIGNWLSWYQQKPGKAPKLLIYRASNLASGVPSRFSGSGSGAEFTLTISSLQPEDFATYYCQNTGGGINIAFGQGTKLTVLGGGGGSGGGGSGGGGSGGGGSEVQLVESGGGLVQPGGSLRLSCTVSGFSLSSYAMSWVRQAPGKGLEWIGIIYDSASTYYASWAKGRFTISKDTSKNTLYLQMNSLRAEDTAVYFCARERQIFSGDMDGWGQGTTVTVSS
notes: tested as cleared E. coli lysate; also called DLX2529_2548
B20: DLX2683 (scFv)
scFv: B19 scFv with I177V, L207V, F223Y, Q229A, M235F, G237Y, T243L
notes: tested as cleared E. coli lysate; also called DLX2529_2585
B21: DLX2684 (scFv)
scFv: EIVMTQSPSTLSASVGDRVTITCQASQSISSWLSWYQQKPGKAPKLLIYKASTLASGVPSRFSGSGSGTEFTLTISSLQPDDFATYYCQNAGGGVSIAFGQGTKLTVLGGGGGSGGGGSGGGGSGGGGSEVQLVESGGGNVQPGGSLRLSCTASGFSLSDAAMAWVRQAPGKGLEWVGIIYDSASTFYASWAKGRFTISRDNSKNTLYLQMNSLRAEDTATYYCARERNIFSGDMALWGQGTTVTVSS
notes: tested as cleared E. coli lysate; also called DLX2543_2530
B22: DLX2689 (scFv)
scFv: ADIVMTQSPSTLSASVGDRVTITCQASQSISSYLSWYQQKPGKAPKLLIYKASTLASGVPSRFSGSGSGTDFTLTISSLQPEDFATYYCQNAGGGINIAFGQGTKVEIKRGGGGSGGGGSGGGGSGGGGSEVQLVESGGGNVQPGGSLRLSCTASGFSLSNSAMAWVRQAPGKGLEWVGIIYDSASTYYASWAKGRFTISRDNSKNTVYLQMNSLRAEDTATYYCARERAIFSGDFALWGQGTLVTVSS
notes: tested as cleared E. coli lysate; also called DLX2544_2531
B23: DLX2692 (scFv)
scFv: ADIVMTQSPSTLSASVGDRVTITCQASQSISSYLSWYQQKPGKAPKLLIYRASTLASGVPSRFSGSGSGAEFTLTISSLQPDDFATYYCQNTGGGINIAFGQGTKLEIKRGGGGSGGGGSGGGGSGGGGSEVQLVESGGGNVQPGGSLRLSCTASGFSLSDAAMAWVRQAPGKGLEWVGIIYDSASTFYASWAKGRFTISRDNSKNTLYLQMNSLRAEDTATYYCARERNIFSGDMALWGQGTTVTVSS
notes: tested as cleared E. coli lysate; also called DLX2547_2530

For the first assay, the target named is T1, recombinant human IL-1 beta (human, UniProt P01584 117-269). The assay can be described thus: cell-based or functional assay.
As for B1, the “IC50 of IL-1 beta-induced IL-6 release from human dermal fibroblasts” value (shortened to “IC50 of IL-1 beta-induced IL-6 release”) was 0.004 nM.

Regarding B2, the “IC50 of IL-1 beta-induced IL-6 release” value stood at 0.3 nM. Still for that read-out and setting: with B3 the figure was 0.025 nM; with B4, 0.1 nM. Same read-out and setting: with B5 the figure was 0.2 nM; with B6, 0.015 nM.

Take B7: the “IC50 of IL-1 beta-induced IL-6 release” value stood at 0.004 nM.

The target in a further assay is T1, recombinant human IL-1 beta. The experiment in a line: ELISA, cleared E. coli lysate on coated rhIL-1 beta. The procedure:
The resulting scFv mutants are expressed in 96-well format in 1 ml cultures in E. coli BL21 (DE3) (Novagen, USA, cat. no. 69450-3). […] Cells were lysed in lysis buffer (1 mM EDTA, 0.1 mg/ml lysozyme, PBS pH 7.2) in a 96-well format by freezing and subsequent thawing. Derived crude extracts were cleared by centrifugation. Supernatants were added to wells of a microtiterplate coated with 50 ng/ml of rhIL-1 beta (Peprotech) per well. After washing, bound scFvs are detected by ProteinL-HRP and binding to rhIL-1 beta quantified by BM Blue POD Substrate (Roche Applied Science).
Regarding B8, the binding result was “binds”.

On to B9, for which the binding result is listed as “binds”.

As to B10, the binding result is recorded as “binds”.

With B11, the binding result is given as “binds”.

Take B12: the binding result is reported as “binds”. Turning to B13, the binding result is “binds”. On to B14, for which the binding result is reported as “binds”. The same measure, in the same setting: next, B15: “binds”. Same read-out and setting: with B16 the entry was “binds”; with B17, “binds”; with B18, “binds”. The same measure, in the same setting: next, B19: “binds”; B20: “binds”. In the case of B21, the binding result is “binds”. The same measure, in the same setting: next, B22: “binds”; B23: “binds”.
